{"source": "patent US5861377A", "about": "“Antistasin type serine protease inhibitors” (Novartis AG, priority 1994, dated 1999)", "origin": "cited, not measured here", "molecules": {"B1": {"name": "Antistasin: cysteine-rich serine proteinase inhibitor of 119 amino acids from the Mexican leech Haementeria officinalis; factor Xa inhibitor (protein)", "chain": "EGPFGPGCEEAGCPEGSACNIITDRCTCSGVRCRVHCPHGFQRSRYGCEFCKCRKEPMKATCDISECPEGMMCSRKTNKCDCKIDINCRKTCPNGLKRDKGCEYCECRFKRKLIPRLS"}}, "key": {"[1]": {"molecular_target": "Factor Xa (Homo sapiens, UniProt P00742)", "sequence (P00742 235-488 limits assumed)": "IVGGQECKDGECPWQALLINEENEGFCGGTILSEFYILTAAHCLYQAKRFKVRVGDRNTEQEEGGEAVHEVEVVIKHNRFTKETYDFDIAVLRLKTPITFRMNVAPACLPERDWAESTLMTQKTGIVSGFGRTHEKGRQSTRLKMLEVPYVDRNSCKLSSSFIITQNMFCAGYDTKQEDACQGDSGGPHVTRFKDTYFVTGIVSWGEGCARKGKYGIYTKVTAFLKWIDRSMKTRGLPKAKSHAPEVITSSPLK", "sequence (P00742 41-179 partner limits assumed)": "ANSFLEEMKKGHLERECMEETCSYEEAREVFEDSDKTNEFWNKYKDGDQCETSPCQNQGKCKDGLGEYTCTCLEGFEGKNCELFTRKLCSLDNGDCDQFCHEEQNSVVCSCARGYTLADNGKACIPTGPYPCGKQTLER", "conditions": "data from Dunwiddie et al."}, "[2]": {"molecular_target": "T1, Trypsin (Bos taurus, UniProt P00760)", "T1 sequence (P00760 24-246)": "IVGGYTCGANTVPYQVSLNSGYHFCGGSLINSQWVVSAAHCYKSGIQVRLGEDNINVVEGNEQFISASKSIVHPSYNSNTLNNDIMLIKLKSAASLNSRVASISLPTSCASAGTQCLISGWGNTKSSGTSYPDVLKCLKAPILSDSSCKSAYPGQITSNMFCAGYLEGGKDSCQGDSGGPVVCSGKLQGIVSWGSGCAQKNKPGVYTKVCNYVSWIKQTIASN", "conditions": "bovine trypsin; data from Dunwiddie et al."}}}
{"molecule": "B1", "values": [{"measurement": "IC50", "setting": "[1]", "result": 1, "unit": "nM"}, {"measurement": "IC50", "setting": "[2]", "result": 5, "unit": "nM"}]}
